Experimental data reported in paper PMC6955338 (Proceedings of the National Academy of Sciences of the …, 2019).
Each block holds one molecule with its values, some of them ahead of it.

Key:
[1] = biological target: mouse CD11b I-domain (moCD11b-I) (mouse) (UniProt P05555); assay: BLI
[2] = biological target: human CD11b I-domain (huCD11b-I) (human); assay: SAXS
[3] = biological target: T1, leukocidin GH (LukGH) wild-type (Staphylococcus aureus USA300 (ST8) …); assay: SAXS
T1 chain 1: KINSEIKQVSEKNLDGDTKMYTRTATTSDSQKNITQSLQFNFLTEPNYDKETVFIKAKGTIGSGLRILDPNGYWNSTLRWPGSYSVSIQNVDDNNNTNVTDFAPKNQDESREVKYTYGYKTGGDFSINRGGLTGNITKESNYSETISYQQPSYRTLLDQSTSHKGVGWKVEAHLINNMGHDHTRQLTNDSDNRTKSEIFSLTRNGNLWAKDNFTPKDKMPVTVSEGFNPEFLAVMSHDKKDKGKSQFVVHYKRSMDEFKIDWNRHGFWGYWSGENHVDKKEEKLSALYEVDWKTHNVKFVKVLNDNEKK
T1 chain 2: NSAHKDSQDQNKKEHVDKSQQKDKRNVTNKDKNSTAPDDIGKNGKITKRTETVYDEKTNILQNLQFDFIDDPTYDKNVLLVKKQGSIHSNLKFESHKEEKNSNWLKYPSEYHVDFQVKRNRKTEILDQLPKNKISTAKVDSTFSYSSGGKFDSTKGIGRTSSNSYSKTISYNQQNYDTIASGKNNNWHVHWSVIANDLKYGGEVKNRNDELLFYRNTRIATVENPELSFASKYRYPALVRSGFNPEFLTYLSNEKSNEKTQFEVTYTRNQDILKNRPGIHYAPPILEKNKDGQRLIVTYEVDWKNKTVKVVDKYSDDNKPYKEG

Chain of mouse CD11b I-domain (moCD11b-I) (mouse) (P05555 143-337): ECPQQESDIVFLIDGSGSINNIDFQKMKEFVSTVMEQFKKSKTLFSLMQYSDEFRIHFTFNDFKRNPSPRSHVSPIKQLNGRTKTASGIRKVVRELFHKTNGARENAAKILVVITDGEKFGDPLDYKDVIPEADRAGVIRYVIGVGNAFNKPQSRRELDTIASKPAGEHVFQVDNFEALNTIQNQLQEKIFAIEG

Molecule: LukGH^K319A (complex)
Kd [1]: 63 nM

Molecule: leukocidin GH (LukGH) wild-type (complex)
stoichiometry N [2]: 1
Kd [1]: 1000 nM

binding result [3]: binds
B1: Fab of αLukGH-mAb#5.H1H2 (Fab, V domains shown)
VH: ELQLQESGPGLVKPSETLSLTCTVSGGSISSGSYYWDWIRQPPGKGLEWIGNIYKSGSTYYNPSLKSRVTISVDTSKNQFSLKLSSVTAADTAVYYCARERGMHYMDVWGKGTTVTVSS
VL: DIQMTQSPSSLSASVGDRVTITCRASQSINSYLNWYQQKPGKAPKLLIYAASSLQSGVPSRFSGSGSGTDFTLTISSLQPEDFATYYCQQQFDPPFTFGGGTKVEIK
